pIC50: −log10 of the molar value.
Target: Trypsin
Experiment: trypsin-inhibitory assay (residual enzyme activity on a fluorogenic substrate); 100 pM trypsin pre-incubated with peptide (twofold dilution series) for 3 h at room temperature in 0.1 M NaCl, 10 mM CaCl2, 0.005% Triton X-100, 0.1 M Tris-HCl pH 8.0; residual activity with 10 uM Boc-Q-A-R-7-amido-4-methyl-coumarin; IC50 from a nonlinear fit of initial velocities (Prism)

Chain of Trypsin (P00760 24-246): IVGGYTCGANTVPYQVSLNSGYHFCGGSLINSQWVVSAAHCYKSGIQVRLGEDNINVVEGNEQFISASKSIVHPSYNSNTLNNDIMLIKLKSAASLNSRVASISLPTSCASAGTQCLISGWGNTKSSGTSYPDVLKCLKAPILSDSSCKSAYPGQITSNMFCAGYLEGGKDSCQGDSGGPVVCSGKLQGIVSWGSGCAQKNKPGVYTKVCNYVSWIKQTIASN

pIC50 | Substance
9.48 | cell-free synthesized linear oxidized circularly permuted SFTI (prmSFTI) (peptide)
9.44 | chemically synthesized linear oxidized circularly permuted SFTI (prmSFTI) (peptide)

Substance | pIC50
chemically synthesized backbone-cyclic sunflower trypsin inhibitor (SFTI) (peptide) | 9.77
